This assay deals with T1, recombinant GDF11 (UniProt O95390).
T1 sequence (looked up): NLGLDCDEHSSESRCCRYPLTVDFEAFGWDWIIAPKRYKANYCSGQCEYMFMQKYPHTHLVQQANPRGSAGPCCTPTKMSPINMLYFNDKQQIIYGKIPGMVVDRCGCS
Kind of assay: sandwich ELISA, plates coated with mActRIIA-Fc, detected with anti-GDF8/11 antibodies.

In the case of “mActRIIA-Fc (extracellular domain of murine ActRIIA fused to a murine Fc domain; the murine counterpart of SEQ ID NO:7) (from UniProt P27038 21-135) (Fc fusion)”, the lowest concentration detected in ELISA turned out to be 100 pg/mL.

Source of the values: patent US20150276766A1.
